# Data reported in PMC10602909.
# Tested on: ZNF506 ZF1-8 (C-terminal zinc finger array) (human)
# Assay: ITC
# Conditions: ITC (MicroCal PEAQ-ITC): 100 mM Tris pH 8, 500 mM NaCl, 25 uM ZnCl2, 10 mM reduced glutathione; protein 20 uM, DNA 200 nM as printed; temperature not stated
substance,measurement,value
PBS-Pro 28 bp dsDNA probe,Kd,0.84 µM
